No end group written: not given here. *: point of attachment. Benzoyl(4-SO2NH2) = NS(=O)(=O)c1ccc(C(=O)*)cc1; M65 = not defined here; M67 = not defined here; M75 = not defined here; M76 = not defined here; M88 = not defined here
B1: M65-AAEIR (peptide)
peptide: M65-AAEIR
modifications: not fully specified; printed as M65-AAEIR; reading uncertain
B2: M75-AAEIR (peptide)
peptide: M75-AAEIR
modifications: not fully specified; printed as M75-AAEIR; reading uncertain
B3: M76-AAEIR (peptide)
peptide: M76-AAEIR
modifications: not fully specified; printed as M76-AAEIR; reading uncertain
B4: M67-AAEIR (peptide)
peptide: M67-AAEIR
modifications: not fully specified; printed as M67-AAEIR; reading uncertain
B5: M88-AAEIR (peptide)
peptide: M88-AAEIR
modifications: not fully specified; printed as M88-AAEIR; reading uncertain
B6: (SAB)AAAAE (peptide)
peptide: {Benzoyl(4-SO2NH2)}-AAAAE-NH2
SMILES: C[C@H](NC(=O)c1ccc(S(N)(=O)=O)cc1)C(=O)N[C@@H](C)C(=O)N[C@@H](C)C(=O)N[C@@H](C)C(=O)N[C@@H](CCC(=O)O)C(N)=O
B7: (SAB)FAAAE (peptide)
peptide: {Benzoyl(4-SO2NH2)}-FAAAE-NH2
SMILES: C[C@H](NC(=O)[C@H](C)NC(=O)[C@H](Cc1ccccc1)NC(=O)c1ccc(S(N)(=O)=O)cc1)C(=O)N[C@@H](C)C(=O)N[C@@H](CCC(=O)O)C(N)=O
B8: (SAB)AFAAE (peptide)
peptide: {Benzoyl(4-SO2NH2)}-AFAAE-NH2
SMILES: C[C@H](NC(=O)c1ccc(S(N)(=O)=O)cc1)C(=O)N[C@@H](Cc1ccccc1)C(=O)N[C@@H](C)C(=O)N[C@@H](C)C(=O)N[C@@H](CCC(=O)O)C(N)=O
B9: (SAB)HAAAE (peptide)
peptide: {Benzoyl(4-SO2NH2)}-HAAAE-NH2
SMILES: C[C@H](NC(=O)[C@H](C)NC(=O)[C@H](Cc1c[nH]cn1)NC(=O)c1ccc(S(N)(=O)=O)cc1)C(=O)N[C@@H](C)C(=O)N[C@@H](CCC(=O)O)C(N)=O
B10: (SAB)EAAAE (peptide)
peptide: {Benzoyl(4-SO2NH2)}-EAAAE-NH2
SMILES: C[C@H](NC(=O)[C@H](C)NC(=O)[C@H](CCC(=O)O)NC(=O)c1ccc(S(N)(=O)=O)cc1)C(=O)N[C@@H](C)C(=O)N[C@@H](CCC(=O)O)C(N)=O
B11: (SAB)LAAAE (peptide)
peptide: {Benzoyl(4-SO2NH2)}-LAAAE-NH2
SMILES: CC(C)C[C@H](NC(=O)c1ccc(S(N)(=O)=O)cc1)C(=O)N[C@@H](C)C(=O)N[C@@H](C)C(=O)N[C@@H](C)C(=O)N[C@@H](CCC(=O)O)C(N)=O
B12: (SAB)SAAAE (peptide)
peptide: {Benzoyl(4-SO2NH2)}-SAAAE-NH2
SMILES: C[C@H](NC(=O)[C@H](C)NC(=O)[C@H](CO)NC(=O)c1ccc(S(N)(=O)=O)cc1)C(=O)N[C@@H](C)C(=O)N[C@@H](CCC(=O)O)C(N)=O

The binders below were run against T1, wild-type human carbonic anhydrase II (hCAII) protein (human, UniProt P00918 4-259) (assay: cell-based or functional assay).

| NTM-AAEIR IC50 (µM), colorimetric IC50 assay [µM] | Binder |
| --- | --- |
| 0.515 | B1 |
| 0.067 | B2 |
| 0.077 | B3 |
| 0.073 | B4 |
| 0.095 | B5 |

Biological target: T1, wild-type human carbonic anhydrase II …
Test: cell-based or functional assay
Remark: another data set of the same source

| IC50 (µM), hCAII functional assay [µM] | Binder |
| --- | --- |
| 0.0484 | B6 |
| 0.045 | B7 |
| 0.183 | B8 |
| 0.148 | B9 |
| 0.0993 | B10 |
| 0.0284 | B11 |
| 0.153 | B12 |

Biological target: T1, wild-type human carbonic anhydrase II …
Test: cell-based or functional assay
Remark: another data set of the same source

| P2 dependence: fold difference of IC50 (SABA-AF against SABA-AA) [fold] | Binder |
| --- | --- |
| ~4 | B8 |
